This passage reports MFI 640/660 nm results from patent publication EP4424703A1.

Assay [1] has as its target human transferrin receptor-1 on human TfR-positive cells (SK-OV-3, hCMEC/D3) (human) (UniProt P02786). The experiment in a line: flow cytometry on SK-OV-3 cells, 200 nM Ztaq-ABD (negative control) co-incubated with 25 µg/mL Tf-488.
The target is the same in assay [2]. Briefly: flow cytometry on SK-OV-3 cells, 600 nM Ztaq-ABD (negative control) co-incubated with 25 µg/mL Tf-488.

Sequence of UniProt P02786 (P02786 whole entry): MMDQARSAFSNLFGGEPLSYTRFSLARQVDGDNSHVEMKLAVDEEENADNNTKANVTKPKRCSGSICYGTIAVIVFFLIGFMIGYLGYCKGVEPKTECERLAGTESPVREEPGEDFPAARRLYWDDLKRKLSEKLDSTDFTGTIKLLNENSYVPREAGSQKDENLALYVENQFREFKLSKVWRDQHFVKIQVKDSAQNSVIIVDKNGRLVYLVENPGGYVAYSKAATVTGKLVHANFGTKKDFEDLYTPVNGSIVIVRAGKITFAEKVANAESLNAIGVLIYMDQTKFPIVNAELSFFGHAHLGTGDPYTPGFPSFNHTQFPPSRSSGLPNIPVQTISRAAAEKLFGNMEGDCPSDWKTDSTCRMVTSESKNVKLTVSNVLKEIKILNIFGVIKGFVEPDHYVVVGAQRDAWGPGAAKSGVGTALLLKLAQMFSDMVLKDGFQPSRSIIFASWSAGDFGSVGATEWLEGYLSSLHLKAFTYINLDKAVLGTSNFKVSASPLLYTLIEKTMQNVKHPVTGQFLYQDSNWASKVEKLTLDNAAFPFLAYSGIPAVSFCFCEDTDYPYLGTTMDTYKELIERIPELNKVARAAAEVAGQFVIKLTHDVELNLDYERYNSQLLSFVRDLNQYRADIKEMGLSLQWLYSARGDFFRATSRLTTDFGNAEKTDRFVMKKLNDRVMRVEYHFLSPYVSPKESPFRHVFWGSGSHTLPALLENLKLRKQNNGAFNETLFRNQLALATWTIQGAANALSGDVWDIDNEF

Turning to Ztaq-ABD, the MFI 640/660 nm in assay [1] was 1.62 MFI. Ztaq-ABD (designed binder): the MFI 640/660 nm in assay [2] was 3.69 MFI.
